Test system: K4 kissing-loop RNA reporter
Assay: apparent KD of K4 kissing-loop reporter; higher = weaker reporter binding
Settings: Eterna round: R107
Protocol: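 RNA-MaP round R107: designed RNA switches with theophylline, tryptophan, arginine or FMN aptamers are transcribed on-chip within common flanks. They are titrated with a labelled K4 kissing-loop RNA reporter in RNA-MaP buffer (100 mM Tris pH 7.5, 80 mM KCl, 4 mM MgCl2), without ligand or with the indicated ligand. Median apparent KD per design.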

[1] = input ligand: theophylline 20 uM
[2] = input ligand: tryptophan 2.4 mM
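Also: bound reporter read as fluorescence of individual clusters on recovered sequencing chips by microscopy, with normalized cluster intensities fitted with a binding model.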

Sequence	apparent KD of K4 kissing-loop reporter (input ligand: FMN 200 uM) [nM]	apparent KD of K4 kissing-loop reporter (input ligand: arginine 13.2 mM) [nM]	apparent KD of K4 kissing-loop reporter (input ligand: none) [nM]	apparent KD of K4 kissing-loop reporter [1] [nM]	apparent KD of K4 kissing-loop reporter [2] [nM]
GGUUUAUAGGAGGAUACCAGUACGGAUAAAGUACAUUAAUAGUAGAGUGAUGUUCUAAAGUACCCUUGGCAGCUUAGAUUAAGUU [ExTheophylB.I]	87.1	177	133	209	74
GUACGCUCUCGAGUGAUGUUCGGUAAUAGAGAGGAUAUCGCUUUUGCGAGAAGGCUCUGAAUGAGGAAACUCGUUCUGAGUGUAC [FMN A 19]	436	362	389	358	419
GUAUACAUAGAUCACCUUGUAGUGAUGUUGCGAGGACCGGUACGGCCGCCACUCGAAGUACGAAAGUACAAAGAUCUAUGUAUAC [Exclusion Trypto A - 1]	251	131	258	136	45.9
GUAUCGCUAGGAGGAUAUGUCGUUUUUCAUAGCAAUGGCUGUGCGGAGUGAUGUUCCGAUUUACCGGCAGAAGGCCUAGUGAUAC [FMN B 28]	118	104	92.9	106	89.8
GUAUGUGGAAACACGUACUUGUAUCCUAGGCAGGAUAUGCGGAAACGCAGAAGGGCCACCGGCGAGUUUAUCCAGUGAUGUUGGA [Ex FMN A 9]	245	257	291	251	237
GUAUGUUCGAAAGAACGUACAUCUUCGGAAGGAGCGCGUGAAAACGCAGGUAGGUCGCCGAAGUUAUUAGGUAGUGAUGUUACCU [Arginine A K4 8]	128	99.1	101	109	114
GUAUUUCCCUCGGAUACCAGUCAUCAUGAGUAUAGUGAUGUUGUACGUCCGGAUGAUUUUGACCCUUGGCAGCCGUCUCCUUGAA [theeternabot_sameState_KL_Theo_B_49]	515	371	593	497	540
GUCAAGGGUGCGGCCGCCACUUCUAGUGAUGUUAGUUUGUCUUCGUUCAACCGGCGUCUGCACGCAAGGACCGGGCACCAGCGAC [theeternabot_exclusion_KL_Trp_B_10]	552	350	567	636	360
GUCCCAGUGAUGUUGGUAGGCGAGCGGGAUACCAGCGAAGACUCACGCCCUUGGCAGCCCACAUAUCCCGCGUAGGGAUUAGCUC [Same State - Theophylline A (Freestyle 21)]	364	315	431	415	347
GUGAGGAUCAGAAGGAGCGUCGGCAAUCCAGUGAUGUUGGGUGUUGGUUAUAUUUAACGACGACAGGUAGGUCGCUGAUUUUCAA [Same State Arginie B GF 21]	163	107	163	190	140
GUGCAGUGAUGUUGCACGAGGAAAGACGAUACCAGCCGUAAAUAAGGCCCUUGGCAGCGUAAGCUAGCAUAAAGUAUGCUAGUCC [Onarve]	108	102	103	77.1	85.2
GUGCAGUGAUGUUGCACGAGGAAAGACGAUACCAGCCGUAAAUAUGGCCCUUGGCAGCGUGGGCUAGCACAAAAUGUGCUAGUCU [Zareatza]	127	109	116	107	98.2
GUGCGGCUAGUGAUGUUGGUUGCGUGGGAAGGAGCGCAGAAACAUGCAGGUAGGUCGCCCACAUCUCUGAUAAAAGAUUAAUUCA [Riares]	304	254	235	338	239
GUGGUUUACGUAGGAUAUCGGUGAUGAGUAAAUGGAGUGAUGUUCCGAGAUUGAAUAUGAGAUGAGCGAGAAGGGCGGUUUAUGC [FMN B Same State; Euporia Solution 3]	60.8	77.3	63.1	89.7	54.7
GUGUGUGAAAACACGCACUUAUAUCCUAGGCAGGAUAUGCGGAAACGCAGAAGGGCCACCGGCGAGAAAAUCCAGUGAUGUUGGA [Ex FMN A 6]	281	245	273	192	251

From the supplement of paper PMC9170038
